# Literature values in paper PMC11170211.
# System: Asp102
# Test: NMR
substance,measurement,value
alpha-lytic protease (not stated in the article (described only as bacterial); Lysobacter enzymogenes from outside knowledge),pKa,below 1.5
